Assay results taken from patent US12365732 (23ANDME, dated 2025).
Numbering of substitutions follows the chain as printed. In names and notes the source's numbering stands.

T1: hu-CD96 isoform 2 on CHO cells (human, UniProt P40200 22-585)
T1 construct: also called CHO-CD96 (isoform 2); CD96-CHOs
T1 sequence: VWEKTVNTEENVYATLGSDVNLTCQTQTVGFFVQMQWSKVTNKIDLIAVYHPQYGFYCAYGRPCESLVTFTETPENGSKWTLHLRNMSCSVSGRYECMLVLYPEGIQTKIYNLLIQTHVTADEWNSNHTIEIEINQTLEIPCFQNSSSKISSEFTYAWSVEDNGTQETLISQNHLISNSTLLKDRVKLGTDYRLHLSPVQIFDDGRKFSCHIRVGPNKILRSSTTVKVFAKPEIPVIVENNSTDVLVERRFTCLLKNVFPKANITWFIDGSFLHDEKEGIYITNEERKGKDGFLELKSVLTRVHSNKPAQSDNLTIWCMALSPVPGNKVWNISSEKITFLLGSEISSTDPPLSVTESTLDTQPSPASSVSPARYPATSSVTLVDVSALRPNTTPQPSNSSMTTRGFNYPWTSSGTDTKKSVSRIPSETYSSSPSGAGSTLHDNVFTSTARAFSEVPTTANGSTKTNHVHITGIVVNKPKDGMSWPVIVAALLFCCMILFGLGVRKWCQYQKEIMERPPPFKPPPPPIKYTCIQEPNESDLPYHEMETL

T2: cynomolgus monkey CD96 on cynomolgus monkey PBMCs (cynomolgus monkey, UniProt A0A2K5TWV6 22-569)
T2 construct: whole, on cells
T2 sequence: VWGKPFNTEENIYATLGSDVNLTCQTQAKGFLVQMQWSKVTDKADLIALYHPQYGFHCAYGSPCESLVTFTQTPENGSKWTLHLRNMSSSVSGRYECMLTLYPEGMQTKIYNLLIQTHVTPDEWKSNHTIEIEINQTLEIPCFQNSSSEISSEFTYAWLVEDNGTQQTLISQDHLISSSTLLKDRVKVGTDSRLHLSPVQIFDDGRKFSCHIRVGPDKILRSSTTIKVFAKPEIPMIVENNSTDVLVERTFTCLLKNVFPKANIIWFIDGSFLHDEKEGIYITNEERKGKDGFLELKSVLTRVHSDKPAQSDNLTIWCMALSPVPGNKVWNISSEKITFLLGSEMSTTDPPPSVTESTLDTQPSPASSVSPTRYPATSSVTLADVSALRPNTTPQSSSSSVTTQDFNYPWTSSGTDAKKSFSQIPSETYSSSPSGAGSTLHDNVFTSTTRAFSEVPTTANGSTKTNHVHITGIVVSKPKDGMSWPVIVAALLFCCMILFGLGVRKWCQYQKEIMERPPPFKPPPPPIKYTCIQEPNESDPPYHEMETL

B1: mAb1.v7.2 Fab (Fab, V domains shown)
VH: EVQLVQSGAEVKKPGASVKVSCKASGFTFTNNWRHWVRQAPGQGLEWIGMIHFNSGITNINEKFKNRVTMTTDTSTSTAYMELRSLRSEDTAVYYCRSDGVYEGYFDYWGQGTLVTVSS
VL: DIQLTQSPSSLSASVGDRVTITCKASQNVGTAIVWYQQKPGKAPKVLIYSASTRYTGVPSRFSGSGSGTDFTLTISSLQPEDFATYYCQQYSSSPLTFGQGTKVEIK
notes: also called M34R/P52aF/T97V
B2: mAb1.v7.70 Fab (Fab, V domains shown)
VH: B1 VH with N32R, R34M, F53A
VL: B1 VL
notes: also called N32R/P52aA/T97V
B3: mAb1.v7.9 Fab (Fab, V domains shown)
VH: B1 VH with F53M
VL: B1 VL
notes: also called M34R/P52aM/T97V
B4: mAb1.v7.48 Fab (Fab, V domains shown)
VH: B1 VH with N32R, R34M, F53H
VL: B1 VL
notes: also called N32R/P52aH/T97V
B5: mAb1.v7.16 Fab (Fab, V domains shown)
VH: B1 VH with F53P
VL: B1 VL
notes: also called M34R/T97V
B6: mAb1.v7 IgG (humanized 12F8) (antibody, V domains shown)
VH: B1 VH with R34M, F53P, V101T
VL: DIQLTQSPSSLSASVGDRVTITCKASQNVGTAIVWYQQKPGKAPKVLIYSASTRYTGVPSRFSGSGSGTDFTLTISSLQPEDFATYYCQQYSSSPLTFGQGTKVEIKG
notes: human IgG1 N297G
B7: 9H4, purified hybridoma antibody (antibody, V domains shown)
VH: EVQLLETGGGLVKSGGSLKLSCAASGFTFSDYYMYWVRQTPEKRLEWVAAISDDGTYTYYPDSVKGRFTISRDNANNYLYLQMSSLKSEDTAIYYCAKAGSYDYFDVWGAGTTVTVSS
VL: DIVLTQSPASLAVSLGQRAIISCKASQSVTFADTGLMHWYQQKPGQQPKLLIYRASNLEVGVPTRFSGSGSGTDFTLNIHPVEEEDVATYYCQQSREYPWTFGGGTKLEIK
notes: murine hybridoma IgG
B8: 7E5, purified hybridoma antibody (antibody, V domains shown)
VH: QVQLKESGPGLVAPSQSLSIICTVSGFSLTNYGIHWIRQPPGKGLEWLGIIWAGGSTNYNSALMSRLTISKDNSKSQVFLKMNSLQTNDTAIYYCARVSMMGFAYWGQGTLVTVSA
VL: QAVVTQESALTTSPGETVTLTCRSSTGAVTTSNYANWVQEKPDHLFTGLIGGTNNRAPGVPARFSGSLIGDKAALTITGAQTEDEAIYFCSLWYGSHWVFGGGTKLTVL
notes: murine hybridoma IgG
B9: 10G1 (clone 10G1.3G8), purified hybridoma antibody (antibody, V domains shown)
VH: QIQLVQSGPELKKPGETVKISCKASGYPFTTYGMSWVKQAPGKGLKWMGWINTDSGVPTYADDFKGRFAFSLETSANTAYLQINSLKNEDAATYFCARNIYYGWGNFDYWGQGTILTVSS
VL: DILMTQSPTTLSVTPGETVSLSCRASQDIYRNLHWYQQKSQGTPRLLIKHASDSISGIPSRFTGSGSGTDFTLSINSVKPEDEGIYYCLQGYSMPYTFGGGTKLEIK
notes: murine hybridoma IgG
B10: h10G1 IgG (humanized 10G1) (antibody, V domains shown)
VH: EIQLVQSGSELKKPGASVKVSCKASGYPFTTYGMSWVRQAPGQGLEWMGWINTDSGVPTYADDFKGRFVFSLDTSVSTAYLQISSLKAEDTAVYFCARNIYYGWGNFDYWGQGTLVTVSS
VL: EIVMTQSPDFQSVTPKEKVTITCRASQDIYRNLHWYQQKPDQTPKLLIKHASDSISGIPSRFSGSGSGTDFTLTINSLEAEDAAAYYCLQGYSMPYTFGGGTKVEIKG
notes: human IgG1 N297G
B11: mAb1.v7.NGS11 IgG (antibody, V domains shown)
VH: B1 VH with W33F, R34M, M50F, F53A
VL: B6 VL
notes: human IgG1 N297G
B12: mAb1.v7.NGS9 IgG (antibody, V domains shown)
VH: B1 VH with W33F, R34M, F53A
VL: B6 VL
notes: human IgG1 N297G
B13: mAb1.v7.NGS10 IgG (antibody, V domains shown)
VH: B1 VH with W33F, R34M, M50F, F53A, V101I
VL: B6 VL
notes: human IgG1 N297G

biological target: T3, cy-CD96 Fc (cynomolgus monkey, biotinylated in Table 16); experiment: SPR 25C, CD96-Fc on Protein A, Fab analyte
T3 construct: also called biotinylated cy-CD96-Fc
Procedure: Briefly, hu-CD96 Fc and cy-CD96 Fc were diluted at 10 µg/mL in HBS-P buffer (0.01 M HEPES pH 7.4, 0.15 M NaCl, 0.005% Surfactant P20) and applied to the Protein A chip at 30 µL/min flow rate for 60 s in flow cell 2 (FC2). Then flow 3-fold serial dilutions of mAb1.v7 Fab variants in HBS-P buffer (0.01 M HEPES pH 7.4, 0.15 M NaCl, 0.005% surfactant P20) from (0.4 nM) to high (1000 nM) were injected (flow rate: 30 µL/min) at 25° C. to both flow cell 1 (FC1) and flow cell 2 (FC2). The sensorgram was recorded and subject to reference and buffer subtraction before evaluating by BIA- CORE® 8K Evaluation Software (version 1.1.1.7442). Association rates ($kon$) and dissociation rates ($koff$) were calculated using a simple one-to-one Langmuir binding model. The equilibrium dissociation constant (K_D) was calculated as the ratio of $koff/kon$, and the values determined for the mAb1.v7 and the 5 Fab variants are summarized in Table 10 (below).

T3 sequence (chain, as listed by the source): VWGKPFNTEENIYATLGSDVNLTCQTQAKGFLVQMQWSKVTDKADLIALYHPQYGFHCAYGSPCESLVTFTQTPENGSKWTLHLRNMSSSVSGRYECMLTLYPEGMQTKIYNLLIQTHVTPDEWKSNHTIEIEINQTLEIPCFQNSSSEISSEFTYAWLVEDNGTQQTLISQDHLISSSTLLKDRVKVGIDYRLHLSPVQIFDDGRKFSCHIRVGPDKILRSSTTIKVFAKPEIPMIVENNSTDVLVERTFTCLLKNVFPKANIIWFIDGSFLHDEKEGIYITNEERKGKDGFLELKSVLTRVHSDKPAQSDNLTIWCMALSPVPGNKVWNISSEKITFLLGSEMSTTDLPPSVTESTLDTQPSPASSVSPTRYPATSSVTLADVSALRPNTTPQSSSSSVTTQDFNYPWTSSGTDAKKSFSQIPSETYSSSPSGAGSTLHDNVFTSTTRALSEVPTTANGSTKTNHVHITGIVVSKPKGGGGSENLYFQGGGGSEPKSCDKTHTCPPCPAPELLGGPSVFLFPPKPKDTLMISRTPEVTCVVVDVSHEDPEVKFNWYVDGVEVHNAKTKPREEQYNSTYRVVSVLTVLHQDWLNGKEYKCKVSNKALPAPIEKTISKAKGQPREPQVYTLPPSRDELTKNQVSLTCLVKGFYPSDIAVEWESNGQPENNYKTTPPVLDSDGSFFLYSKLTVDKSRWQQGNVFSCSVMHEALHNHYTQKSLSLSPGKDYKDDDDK

Which Kd does the source give for B1 here?
Its Kd is 9.24 nM.

And the koff?
The koff was 0.00024 s⁻¹.

What about the kon of the same binder?
Its kon is 26000 M⁻¹ s⁻¹.

Which Kd does the source give for B2 here?
The Kd was 5 nM.

What about the koff of the same binder?
Its koff is 0.000189 s⁻¹.

And the kon?
The kon was 37200 M⁻¹ s⁻¹.

Which Kd does the source give for B3 here?
The Kd was 22 nM.

What about the koff of the same binder?
Its koff is 0.000802 s⁻¹.

What about the kon of the same binder?
Its kon is 36400 M⁻¹ s⁻¹.

B4 was tested. Which Kd did it give?
Its Kd is 8.9 nM.

What about the koff of the same binder?
Its koff is 0.000328 s⁻¹.

What about the kon of the same binder?
Its kon is 36600 M⁻¹ s⁻¹.

How did the Kd turn out when B5 was run?
The Kd was 94 nM.

What about the koff of the same binder?
Its koff is 0.000972 s⁻¹.

What about the kon of the same binder?
The kon was 10400 M⁻¹ s⁻¹.

biological target: T1, hu-CD96 isoform 2 on CHO cells; experiment: FACS, Ab 50 nM
Procedure: (§1) Isoform 1 of hu-CD96 (Origene, catalog #RC213845) was transiently expressed in HEK293T cells following standard lipofectamine or Fugene transfection protocol. […] Cells were washed, and binding was detected by incubation with anti-mouse IgG-FITC (Biolegend, catalog #406001) for 20 minutes at 4° C. Cell binding was analyzed by flow cytometry with a CytoFLEX (Beckman Coulter). Binding curves were calculated as a percentage of cells positive for bound antibody.
(§2) Isoform 2 of hu-CD96 (DNA construct: Origene, catalog #RC221005) was expressed on a single-cell-clone-derived CHO stable cell line. Binding of the anti-CD96 antibodies to the CHO cells were determined as described above with isoform 1 of hu-CD96.

For B6, which “% positive” value is on record?
The value was 44.1%.

With B7 as the binder, how does the “% positive” value read?
Its value is 46.2%.

How did the “% positive” value turn out when B8 was run?
The value was 58.9%.

For B9, which “% positive” value is on record?
The value was 39.8%.

biological target: T2, cynomolgus monkey CD96 on cynomolgus …; experiment: FACS, Ab 0.64 nM
Procedure: (§3) The ability of the anti-CD96 antibodies to bind primary immune cells from human and cynomolgus monkey with lower level of receptor expression was measured. Human PBMCs (StemCell Technologies, catalog #70025) and cynomolgus monkey PBMCs (Primate Biologicals, catalog #CM-MC) were incubated with human TruStain FcX (Biolegend, catalog #422302) for 10 minutes at 4° C., followed by incubation with an anti-CD96 antibody for 20 minutes at 4° C. Cells were washed and the anti-CD96 antibody binding was detected by incubation with anti-mouse IgG-PE (Thermo Fisher, catalog #M30204) or anti-human IgG (Fab) 2-PE (Thermo Fisher, catalog #H10104) for 20 minutes at 4° C. Cells were washed, and immune subtypes were labeled with anti-CD3 (BD, catalog #557705), anti-CD4 (Biolegend, catalog #317424) and anti-CD8 (BD, catalog #557760) for 20 minutes at 4° C. Cell binding was analyzed by flow cytometry with a CytoFLEX (Beckman Coulter). Binding curves were calculated as a percentage of cells positive for bound antibody in the cell type of interest.

With B10 as the binder, how does the “% positive” value read?
The value was 51.2%.

B11 was tested. Which “% positive” value did it give?
Its value is 74.3%.

B12 was tested. Which “% positive” value did it give?
Its value is 71%.

How did the “% positive” value turn out when B13 was run?
The value was 73.1%.

biological target: T1, hu-CD96 isoform 2 on CHO cells; experiment: FACS, Ab 0.016 nM
Procedure: as §1, §2

For B6, which “% positive” value is on record?
Its value is 0.4%.

For B7, which “% positive” value is on record?
The value was 0.3%.

How did the “% positive” value turn out when B8 was run?
The value was 3.6%.

B9 was tested. Which “% positive” value did it give?
Its value is 0.4%.

biological target: T2, cynomolgus monkey CD96 on cynomolgus …; experiment: FACS, Ab 0.128 nM
Procedure: as §3

B10 was tested. Which “% positive” value did it give?
Its value is 38.2%.

With B11 as the binder, how does the “% positive” value read?
The value was 63.5%.

With B12 as the binder, how does the “% positive” value read?
The value was 49.4%.

B13 was tested. Which “% positive” value did it give?
Its value is 64.6%.
